In article PMC11551748 one finds response (band intensity relative to WT -ETO) data, which are given here for 6 substances.

The assay deals with Exportin-1 (XPO1), endogenous (UniProt O14980). As to the kind of experiment: co-IP (GFP pulldown) and western blot, semi-quantification. As to conditions: stable U2OS cell lines, parent: est. 0.60, read off a plot.
UniProt O14980, sequence (O14980 whole entry): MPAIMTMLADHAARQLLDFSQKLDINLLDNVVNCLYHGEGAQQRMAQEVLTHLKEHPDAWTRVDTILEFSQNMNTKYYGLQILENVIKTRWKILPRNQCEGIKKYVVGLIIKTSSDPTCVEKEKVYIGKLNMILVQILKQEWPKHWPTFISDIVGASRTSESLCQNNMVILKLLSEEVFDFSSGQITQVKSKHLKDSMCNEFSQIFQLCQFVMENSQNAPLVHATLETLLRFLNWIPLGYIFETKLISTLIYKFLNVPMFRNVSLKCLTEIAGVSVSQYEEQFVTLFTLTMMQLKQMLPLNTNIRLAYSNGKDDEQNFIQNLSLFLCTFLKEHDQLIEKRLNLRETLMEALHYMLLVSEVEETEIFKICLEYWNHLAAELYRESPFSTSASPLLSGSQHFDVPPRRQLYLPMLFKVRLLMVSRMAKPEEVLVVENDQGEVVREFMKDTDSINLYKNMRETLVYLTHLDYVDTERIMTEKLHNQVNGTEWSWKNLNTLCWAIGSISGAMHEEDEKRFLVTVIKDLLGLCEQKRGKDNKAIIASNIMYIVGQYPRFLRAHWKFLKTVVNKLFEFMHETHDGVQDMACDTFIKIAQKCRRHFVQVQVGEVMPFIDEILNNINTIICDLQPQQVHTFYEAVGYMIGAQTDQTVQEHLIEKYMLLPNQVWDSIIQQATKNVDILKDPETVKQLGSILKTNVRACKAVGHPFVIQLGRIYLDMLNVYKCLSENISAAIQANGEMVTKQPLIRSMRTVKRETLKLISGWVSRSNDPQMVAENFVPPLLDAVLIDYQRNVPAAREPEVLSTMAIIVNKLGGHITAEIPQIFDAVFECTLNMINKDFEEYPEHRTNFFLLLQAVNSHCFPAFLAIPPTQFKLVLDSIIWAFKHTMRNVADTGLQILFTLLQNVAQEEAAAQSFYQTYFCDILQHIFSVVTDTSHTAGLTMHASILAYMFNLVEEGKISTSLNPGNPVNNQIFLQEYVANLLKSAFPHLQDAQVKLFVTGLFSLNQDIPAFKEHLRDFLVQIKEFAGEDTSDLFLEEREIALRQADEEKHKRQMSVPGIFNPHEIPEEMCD

As to “TIRR-GFP WT (lentivirus-integrated, U2OS) (from UniProt Q9BRJ7) RBM”, the response (band intensity relative to WT -ETO) is 0.9.
As for “TIRR-GFP WT (lentivirus-integrated, U2OS) (from UniProt Q9BRJ7) K10E”, the figure is 0.27; as for “TIRR-GFP WT (lentivirus-integrated, U2OS) (from UniProt Q9BRJ7) NES3”, 3.2; as for “TIRR-GFP WT (lentivirus-integrated, U2OS) (from UniProt Q9BRJ7) NES2”, 0.3.
For the substance “TIRR-GFP WT (lentivirus-integrated, U2OS) (from UniProt Q9BRJ7) NES1”, the response (band intensity relative to WT -ETO) stood at 2.1.
For the substance “TIRR-GFP WT (lentivirus-integrated, U2OS) (from UniProt Q9BRJ7) NES4”, the response (band intensity relative to WT -ETO) was found to be 1.3.
